{"source": "patent US20190225658A1", "key": {"Kir3.1/Kir3.4 channel [1]": {"molecular_target": "Kir3.1/Kir3.4 channel", "sequence (P48549 whole entry, chain 1 of 2)": "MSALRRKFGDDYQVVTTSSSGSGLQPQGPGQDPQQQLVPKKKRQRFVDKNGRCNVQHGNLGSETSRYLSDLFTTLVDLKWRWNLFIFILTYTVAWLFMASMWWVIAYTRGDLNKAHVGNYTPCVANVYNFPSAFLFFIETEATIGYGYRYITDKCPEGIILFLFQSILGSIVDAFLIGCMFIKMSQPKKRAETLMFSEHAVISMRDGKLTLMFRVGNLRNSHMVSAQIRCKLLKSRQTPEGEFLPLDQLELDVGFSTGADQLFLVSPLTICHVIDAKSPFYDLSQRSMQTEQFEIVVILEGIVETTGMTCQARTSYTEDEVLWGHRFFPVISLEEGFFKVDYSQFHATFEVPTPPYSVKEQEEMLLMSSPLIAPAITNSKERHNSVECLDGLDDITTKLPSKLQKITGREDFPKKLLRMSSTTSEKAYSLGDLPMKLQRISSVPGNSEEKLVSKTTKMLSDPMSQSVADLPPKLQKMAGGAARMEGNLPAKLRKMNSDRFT", "sequence (P48544 whole entry, chain 2 of 2, further chain)": "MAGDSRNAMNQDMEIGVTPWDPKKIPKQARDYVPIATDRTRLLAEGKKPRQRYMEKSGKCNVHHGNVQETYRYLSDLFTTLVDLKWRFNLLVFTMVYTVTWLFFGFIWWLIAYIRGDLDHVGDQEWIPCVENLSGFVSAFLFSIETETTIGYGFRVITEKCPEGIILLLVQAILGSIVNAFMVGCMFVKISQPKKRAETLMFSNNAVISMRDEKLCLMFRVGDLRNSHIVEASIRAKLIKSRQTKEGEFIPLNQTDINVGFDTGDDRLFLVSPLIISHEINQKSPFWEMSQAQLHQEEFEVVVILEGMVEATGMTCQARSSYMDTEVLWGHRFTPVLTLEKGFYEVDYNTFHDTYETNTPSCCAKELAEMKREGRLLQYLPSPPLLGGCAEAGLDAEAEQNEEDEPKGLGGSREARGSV", "experiment": "cell-based or functional assay"}, "Kir3.1/Kir3.4 channel [2]": {"molecular_target": "Kir3.1/Kir3.4 channel", "experiment": "flow cytometry dose response curve of binding on HEK cells stably transfected with Kir3.1/3.4"}, "Kir3.1/Kir3.4 channel [3]": {"molecular_target": "Kir3.1/Kir3.4 channel", "experiment": "flow cytometry, HEK cells stably transfected with Kir3.1/3.4, labeled with 10 nM; unlabeled cells 162 A.U."}}, "data": [{"substance": "TertiapinQ (peptide)", "values": [{"measurement": "IKACh block, patch clamp, dose response curve", "setting": "Kir3.1/Kir3.4 channel [1]", "value": 70, "unit": "nM"}]}, {"substance": "TertiapinQ labeled with ATT0633 (peptide)", "values": [{"measurement": "IC50", "setting": "Kir3.1/Kir3.4 channel [2]", "value": 11, "unit": "nM"}, {"measurement": "median fluorescence", "setting": "Kir3.1/Kir3.4 channel [3]", "value": 3840, "unit": "A.U."}]}, {"substance": "TertiapinQ peptibody (Fc fusion)", "values": [{"measurement": "IKACh block, patch clamp, dose response curve", "setting": "Kir3.1/Kir3.4 channel [1]", "value": 16, "unit": "nM"}]}]}
